Data: US20200231684A1 (published 2020)

Assays:
[1] = target: cynomolgus IL-36R on BaF/3 cells (cynomolgus, UniProt A0A2K5WSK9 20-558); experiment: cell-based or functional assay
human IL-36R on cells [2] = target: T1, human IL-36R on cells (human, UniProt Q9HB29 20-575); experiment: cell-based or functional assay
T1 sequence (looked up): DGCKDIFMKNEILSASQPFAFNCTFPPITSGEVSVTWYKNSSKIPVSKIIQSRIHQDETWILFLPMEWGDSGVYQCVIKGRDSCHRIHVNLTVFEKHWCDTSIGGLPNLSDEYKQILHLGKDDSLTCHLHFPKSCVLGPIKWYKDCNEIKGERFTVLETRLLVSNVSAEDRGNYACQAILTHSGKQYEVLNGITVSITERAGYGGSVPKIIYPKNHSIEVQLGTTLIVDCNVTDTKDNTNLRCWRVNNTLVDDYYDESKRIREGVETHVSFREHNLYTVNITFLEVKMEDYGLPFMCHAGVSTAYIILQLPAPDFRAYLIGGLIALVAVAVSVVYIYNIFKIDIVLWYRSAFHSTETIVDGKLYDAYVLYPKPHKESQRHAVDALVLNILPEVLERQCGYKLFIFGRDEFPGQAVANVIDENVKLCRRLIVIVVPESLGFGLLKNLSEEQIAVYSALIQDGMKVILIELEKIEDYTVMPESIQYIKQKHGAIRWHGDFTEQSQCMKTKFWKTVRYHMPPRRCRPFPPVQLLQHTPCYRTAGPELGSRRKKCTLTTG

[3] = target: T2, recombinant human IL-36R (ECD) (human, UniProt Q9HB29 20-332); experiment: SPR (ProteOn), single IL-36R surface coat concentration
T2 construct: range 20-332; also called IL-1RL2; IL-1Rrp2
T2 sequence (looked up): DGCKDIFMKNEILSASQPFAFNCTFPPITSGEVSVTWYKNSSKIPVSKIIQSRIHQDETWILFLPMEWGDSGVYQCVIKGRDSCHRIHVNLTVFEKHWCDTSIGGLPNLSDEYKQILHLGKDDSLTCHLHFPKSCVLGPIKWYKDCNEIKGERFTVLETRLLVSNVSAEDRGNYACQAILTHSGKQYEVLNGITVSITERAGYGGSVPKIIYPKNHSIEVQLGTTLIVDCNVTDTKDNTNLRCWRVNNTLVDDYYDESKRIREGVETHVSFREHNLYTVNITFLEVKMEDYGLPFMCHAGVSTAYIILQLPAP
Description: A) Kinetics and binding affinities of anti-IL-36R antibodies binding to recombinant human IL-36R were measured using the Proteon (Bio-Rad, Hercules, Calif.) using material generated from hybridoma following single column purification. […] Binding of the chimeric anti-IL36R IgGs is equivalent to the respective mouse leads.

[4] = target: T2, recombinant human IL-36R (ECD); experiment: SPR (ProteOn), recombinant human IL-36R at 7 surface densities, global fit
Description: A) Kinetics and binding affinities of anti-IL-36R antibodies binding to recombinant human IL-36R were measured using the Proteon (Bio-Rad, Hercules, Calif.) using material generated from hybridoma following single column purification. […] The binding affinities of the mouse antibodies to human IL-36R run at 7 different surface densities (globally fit) is shown in Table 1. Binding of the chimeric anti-IL36R IgGs is equivalent to the respective mouse leads.

mouse IL-36R = target: T3, mouse IL-36R (mouse, UniProt Q9ERS7 22-338); experiment: BLI (Fortebio Octet), antibody injected over antigen surface
T3 sequence (looked up): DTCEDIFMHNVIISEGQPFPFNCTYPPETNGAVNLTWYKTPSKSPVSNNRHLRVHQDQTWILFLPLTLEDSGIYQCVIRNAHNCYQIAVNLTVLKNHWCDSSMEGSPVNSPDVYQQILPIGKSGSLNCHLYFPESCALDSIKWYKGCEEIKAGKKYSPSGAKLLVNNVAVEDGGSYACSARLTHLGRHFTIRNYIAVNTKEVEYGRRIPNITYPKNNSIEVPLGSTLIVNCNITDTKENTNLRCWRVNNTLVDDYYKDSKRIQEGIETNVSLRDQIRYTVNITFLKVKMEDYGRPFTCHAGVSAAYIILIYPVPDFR
Description: (§1) B) Molecular selectivity over mouse IL-36R and human IL-1R1 The mouse and chimeric anti-IL-36R antibodies were also injected over either a mouse IL-36R or a human IL-1R1 surface at a concentration of 100 nM. The binding signal to mouse IL-36R and to human IL-1R1 for these antibodies measured using the Fortebio Octet (Fortebio, Menlo Park, Calif.) is zero, which indicates these antibodies selectively bind to human IL-36R.

human IL-1R1 = target: T4, human IL-1R1 (human, UniProt P14778 18-336, limits assumed); experiment: as above
T4 construct: also called IL-1RI
T4 sequence (looked up): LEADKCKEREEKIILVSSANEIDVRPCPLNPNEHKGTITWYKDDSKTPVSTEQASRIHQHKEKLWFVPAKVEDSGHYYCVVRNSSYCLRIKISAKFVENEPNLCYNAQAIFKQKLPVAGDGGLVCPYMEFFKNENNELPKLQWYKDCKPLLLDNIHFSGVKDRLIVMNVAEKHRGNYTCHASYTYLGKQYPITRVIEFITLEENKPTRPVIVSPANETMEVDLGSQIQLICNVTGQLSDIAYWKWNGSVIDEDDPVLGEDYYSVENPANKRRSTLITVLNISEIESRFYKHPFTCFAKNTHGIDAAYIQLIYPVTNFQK
Description: as §1

human IL-36R on cells [5] = target: T1, human IL-36R on cells; experiment: cell-based or functional assay; remark: listed apart in the source
human IL-36R on cells [6] = target: T1, human IL-36R on cells; experiment: flow cytometry, HEK293 cells transfected with full-length human IL-36R
Description: HEK293 cells transfected with full-length human IL-36R or NCI/ADR-RES cells were passaged for 24 hours prior to staining. Cells were removed from flasks by rinsing with 10 ml of 5 mM EDTA in PBS, and then incubated at 37° C. for 10 min with an additional 10 ml of 5 mM EDTA and 2.5 ml of Accumax to declump/disperse cells. Antibodies were then diluted to specified concentrations in PBS+2% BSA, and cells incubated for 20 min at room temperature. Excess antibody was then washed by adding 200 μl of PBS and then centrifuged. Secondary reagent was then added at 50 μl per well and cells are incubated for 15 min at room temperature and then washed as above. Cells were resuspended in 200 μl PBS and analyzed by flow cytometry.

Chain of cynomolgus IL-36R on BaF/3 cells (A0A2K5WSK9 entry or part of it): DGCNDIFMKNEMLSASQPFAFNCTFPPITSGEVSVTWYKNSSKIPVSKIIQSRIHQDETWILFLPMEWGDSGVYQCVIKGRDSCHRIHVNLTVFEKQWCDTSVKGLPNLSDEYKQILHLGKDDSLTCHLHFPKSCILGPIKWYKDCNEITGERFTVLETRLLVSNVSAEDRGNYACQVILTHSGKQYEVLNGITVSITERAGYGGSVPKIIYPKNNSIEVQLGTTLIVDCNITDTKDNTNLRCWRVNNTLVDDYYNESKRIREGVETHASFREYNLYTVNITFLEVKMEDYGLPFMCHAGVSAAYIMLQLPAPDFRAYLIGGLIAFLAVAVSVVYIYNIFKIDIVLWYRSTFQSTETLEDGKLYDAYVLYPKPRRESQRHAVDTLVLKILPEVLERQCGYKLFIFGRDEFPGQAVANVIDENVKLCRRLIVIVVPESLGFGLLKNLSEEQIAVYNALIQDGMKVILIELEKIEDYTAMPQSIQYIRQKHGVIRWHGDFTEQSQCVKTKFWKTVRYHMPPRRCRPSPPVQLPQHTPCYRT

| Binder | IC90, pNFκB, BaF/3 cynomolgus IL-36R cells, trun-IL-36a [1] | IC90, pNFκB, BaF/3 cynomolgus IL-36R cells, trun-IL-36b [1] | IC90, pNFκB, BaF/3 cynomolgus IL-36R cells, trun-IL-36g [1] | IC90, GM-CSF release, NCI/ADR-RES cells, trun-IL-36a (human IL-36R on cells [2]) | IC90, GM-CSF release, NCI/ADR-RES cells, trun-IL-36b (human IL-36R on cells [2]) | IC90, GM-CSF release, NCI/ADR-RES cells, trun-IL-36g (human IL-36R on cells [2]) | IC90, IL-6 release, NCI/ADR-RES cells, trun-IL-36a (human IL-36R on cells [2]) | IC90, IL-6 release, NCI/ADR-RES cells, trun-IL-36b (human IL-36R on cells [2]) | IC90, IL-6 release, NCI/ADR-RES cells, trun-IL-36g (human IL-36R on cells [2]) | IC90, IL-8 release, NCI/ADR-RES cells, trun-IL-36a (human IL-36R on cells [2]) | IC90, IL-8 release, NCI/ADR-RES cells, trun-IL-36b (human IL-36R on cells [2]) | IC90, IL-8 release, NCI/ADR-RES cells, trun-IL-36g (human IL-36R on cells [2]) | IC90, pNFκB, NCI/ADR-RES cells, trun-IL-36a (human IL-36R on cells [2]) | IC90, pNFκB, NCI/ADR-RES cells, trun-IL-36b (human IL-36R on cells [2]) | IC90, pNFκB, NCI/ADR-RES cells, trun-IL-36g (human IL-36R on cells [2]) | Kd [3] | Kd [4] | binding result (mouse IL-36R) | binding result (human IL-1R1) | IC90, IL-8 release, human primary keratinocytes (NHK), trun-IL-36a (human IL-36R on cells [5]) | other results |
| --- | --- | --- | --- | --- | --- | --- | --- | --- | --- | --- | --- | --- | --- | --- | --- | --- | --- | --- | --- | --- | --- |
| antibody 73F6 (antibody, V domains shown, Mouse monoclonal from hybridoma; also called 73F6F8; Mouse 73F6) VH: QVQLKESGPGLVAPSQSLSITCTVSGFSLTNYAVHWVRQFPGKGLEWLGVIWSDGSTDYNAPFKSRLSINKDNSKSQVFFKMNSLQTDDTAIYYCARKGGYSGSWFAYWGQGTLVTVSA VL: DIVMTQSQKFLSTSVGVRVSVTCKASQDVGTNVLWYQQKIGQSPKALIYSASYRHSGVPDRFTGSGSGTDFTLIITNVQSEDLAEYFCQQYSRYPLTFGPGTKLELK | 0.5 nM | 0.7 nM | 0.8 nM | 5.9 nM | 1.7 nM | 1.4 nM | 19 nM | 5.1 nM | 2.2 nM | 3.2 nM | 0.8 nM | 0.9 nM | 2.8 nM | 3 nM | 1.5 nM | < 0.1 nM | 0.025 nM | no binding (tested: 100 nM) | no binding (tested: 100 nM) | 17.8 nM | IC90, IL-8 release, human primary keratinocytes (NHK), trun-IL-36b (human IL-36R on cells [5]): 26 nM; IC90, IL-8 release, human primary keratinocytes (NHK), trun-IL-36g (human IL-36R on cells [5]): 2.1 nM; IC90, pNFκB, human primary keratinocytes (NHK), trun-IL-36a (human IL-36R on cells [5]): 8.2 nM; IC90, pNFκB, human primary keratinocytes (NHK), trun-IL-36b (human IL-36R on cells [5]): 5.2 nM; IC90, pNFκB, human primary keratinocytes (NHK), trun-IL-36g (human IL-36R on cells [5]): 1.3 nM; EC50 (human IL-36R on cells [6]): 0.746 nM |
| antibody 81B4 (antibody, V domains shown, Mouse monoclonal from hybridoma; also called 81B4E11; Mouse 81B4) VH: QVQLQQPGADFVRPGASMRLSCKASGYSFTSSWIHWVKQRPGQGLEWIGEINPGNVRTNYNENFRNKATLTVDKSSTTAYMQLRSLTSADSAVYYCTVVFYGEPYFPYWGQGTLVTVSA VL: QIVLTQSPAIMSASLGERVTMTCTASSSVSSSYFHWYQQKPGSSPKLWIYRTSNLASGVPGRFSGSGSGTSYSLTISSMEAEDAATYYCHQFHRSPLTFGAGTKLELK | 2.4 nM | 3.5 nM | 5.1 nM | 0.8 nM | 0.3 nM | 0.4 nM | 0.8 nM | 0.3 nM | 0.2 nM | 0.7 nM | 0.2 nM | 0.3 nM | 1.7 nM | 1.4 nM | 1.2 nM | < 0.1 nM | 0.024 nM | no binding (tested: 100 nM) | no binding (tested: 100 nM) | 0.7 nM | IC90, IL-8 release, human primary keratinocytes (NHK), trun-IL-36b (human IL-36R on cells [5]): 1.2 nM; IC90, IL-8 release, human primary keratinocytes (NHK), trun-IL-36g (human IL-36R on cells [5]): 0.5 nM; IC90, pNFκB, human primary keratinocytes (NHK), trun-IL-36a (human IL-36R on cells [5]): 1.3 nM; IC90, pNFκB, human primary keratinocytes (NHK), trun-IL-36b (human IL-36R on cells [5]): 1.1 nM; IC90, pNFκB, human primary keratinocytes (NHK), trun-IL-36g (human IL-36R on cells [5]): 0.5 nM; EC50 (human IL-36R on cells [6]): 0.302 nM |
| antibody 78C8 (antibody, V domains shown, Mouse monoclonal from hybridoma; also called 78C8D1; Mouse 78C8) VH: QVQLKESGPVLVAPSQSLSITCTVSGFSLTKFGVHWIRQTPGKGLEWLGVIWAGGPTNYNSALMSRLTISKDISQSQVFLRIDSLQTDDTAMYYCAKQIYYSTLVDYWGQGTSVTVSS VL: DVLLTQTPLSLPVSLGDQASISCRSSQNIVHSNGNTYLQWYLQKPGQSPKLLIYKVSNRFSGVPDRFSGSGSGTDFTLKISRVEAEDLGVYYCFQGSHVPFTFGAGTKLELK | 1 nM | 2.1 nM | 1.5 nM | 7.1 nM | 2 nM | 1.7 nM | 14 nM | 5.8 nM | 1.3 nM | 4.7 nM | 1.1 nM | 1.4 nM | 5.8 nM | 6.8 nM | 4.6 nM | < 0.1 nM | 0.063 nM | no binding (tested: 100 nM) | no binding (tested: 100 nM) | 19.3 nM | IC90, IL-8 release, human primary keratinocytes (NHK), trun-IL-36b (human IL-36R on cells [5]): 34 nM; IC90, IL-8 release, human primary keratinocytes (NHK), trun-IL-36g (human IL-36R on cells [5]): 3.6 nM; IC90, pNFκB, human primary keratinocytes (NHK), trun-IL-36a (human IL-36R on cells [5]): 11.6 nM; IC90, pNFκB, human primary keratinocytes (NHK), trun-IL-36b (human IL-36R on cells [5]): 14.2 nM; IC90, pNFκB, human primary keratinocytes (NHK), trun-IL-36g (human IL-36R on cells [5]): 10.6 nM; EC50 (human IL-36R on cells [6]): 0.529 nM |
